Measured values: US20030100510A1 (KANSAS UNIVERSITY MEDICAL CENTER, published 2003)

B1: type IV collagen α1 chain NC1 domain (bovine lens basement membrane) (other, UniProt Q7SIB2 1441-1669, looked up)
chain: SVDHGFLVTRHSQTTDDPQCPPGTKILYHGYSLLYVQGNERAHGQDLGTAGSCLRKFSTMPFLFCNINNVCNFASRNDYSYWLSTPEPMPMSMAPITGENIRPFISRCAVCEAPAMVMAVHSQTIQIPQCPTGWSSLWIGYSFVMHTSAGAEGSGQALASPGSCLEEFRSAPFIECHGRGTCNYYANAYSFWLATIERSEMFKKPTPSTLKAGELRTHVSRCQVCMRRT
notes: domain: NC1; 5-6 N-terminal and 2 C-terminal residues are disordered in the map; also called α1 NC1; α1(IV) NC1
B2: type IV collagen (α1)2.α2 NC1 trimer (bovine lens basement membrane) (other)
chain 1: B1 chain
chain 2: ISIGYLLVKHSQTDQEPMCPVGMNKLWSGYSLLYFEGQEKAHNQDLGLAGSCLARFSTMPFLYCNPGDVCYYASRNDKSYWLSTTAPLPMMPVAEEDIRPYISRCSVCEAPAVAIAVHSQDVSIPHCPAGWRSLWIGYSFLMHTAAGDEGGGQSLVSPGSCLEDFRATPFIECNGARGTCHYYANKYSFWLTTIPEQSFQGTPSADTLKAGLIRTHISRCQVCMKNL
notes: domain: NC1; Two such trimers make the [(α1)2.α2]2 NC1 hexamer that was crystallized. m3 is used for facts told of the trimer-trimer (hexamer) interface as a whole; also called protomer NC1 trimer; half of the [(α1)2.α2]2 NC1 hexamer

Target: the molecule itself
Assay: crystal structure of the NC1 hexamer, 2.0 Å
Procedure: The heavy atom soak screens were carried out at beamlines 1-5 and 9-2 of Stanford Syncrhortron Radiation Laboratory (SSRL) and beamline X8C of National Synchrotron Light Source (NSLS) at Brookhaven National Laboratory. The Br-MAD data sets used in this study were collected at SSRL and processed using DENZO and […] programs of HKL2000 suite (39). The Br⁻ sites were located using SOLVE program (40) and 37 highest peaks (>6σ) were used for phasing the reflections at 2.2 Å resolution. The resulting phases were improved by solvent flattening using RESOLVE (41) and the electron density map was calculated using FFT program of CCP4 suite (42). Polypeptides of two α1 chains and one α2 chain (chains A-C) were traced using the TOM FRODO graphics program (43). The complete asymmetric unit was generated using non-crystallographic symmetry (“NCS”) relations obtained from Br⁻ sites—first the second trimer (chains D-F) was generated to complete one hexamer and then the second hexamer (chains G-L) was generated from the first hexamer. […] The structure was analyzed using SETOR(45), GRASP(46), and SURFNET(47) graphics software packages and various utility programs in CCP4 suite. The hexamer interface was analyzed using HBPLUS(48) and protein-protein interaction web server (http:/www.biochem.uc1.ac.uk/bsm/PP/server/). […]

Protein | binding result
B1 | binds
B2 | binds
